This note sets out measurements from PMC3681970, “Biochemical Characterization of UDP-N-acetylmuramoyl-L-alanyl-D-glutamate: meso-2,6-diaminopimelate ligase (MurE) from Verrucomicrobium spinosum DSM 4136^T” (PLoS ONE, 2013).

Holding throughout (assay): radiometric HPLC ligase assay, Michaelis-Menten fit
Common to all, as to assay type: biochemical, Verrucomicrobium spinosum

Substrate in data set [1]: CC(=O)N[C@H]1[C@@H](OP(=O)(O)OP(=O)(O)OC[C@H]2O[C@@H](n3ccc(=O)[nH]c3=O)[C@H](O)[C@@H]2O)O[C@H](CO)[C@@H](O)[C@@H]1O[C@H](C)C(=O)N[C@@H](C)C(=O)N[C@H](CCC(=O)O)C(=O)O
Conditions: 100 mM Tris-HCl pH 9.6, 30 mM MgCl2, 37°C, other substrates fixed (standard 5 mM ATP, 150 µM meso-A2pm), labelled compound (14C in D-Glu).

Substrate in data set [2]: N[C@H](CCC[C@H](N)C(=O)O)C(=O)O
Conditions: 100 mM Tris-HCl pH 9.6, 30 mM MgCl2, 37°C, other substrates fixed (standard 5 mM ATP, 150 µM UDP-MurNAc-L-Ala-D-[14C]Glu).

Substrate in data set [3]: Nc1ncnc2c1ncn2[C@@H]1O[C@H](COP(=O)(O)OP(=O)(O)OP(=O)(O)O)[C@@H](O)[C@H]1O
The following applies: 100 mM Tris-HCl pH 9.6, 30 mM MgCl2, 37°C, other substrates fixed (standard 150 µM UDP-MurNAc-L-Ala-D-[14C]Glu, 150 µM meso-A2pm).

B1: MurEVs (Verrucomicrobium spinosum) (protein)
chain: MTILRDLIEGLDKPVISGGLDVEVAGLAYDSRLVKPGFVFFALRGVKSDGHDFIPKALAEGAVAIVAETAPPEDCSVTWLHVKNARVALAEMAAAYKGHPARSMAVGGVTGTNGKTTTAFLLHHLLNHAHRRCGLLGTVVYDVGGDLKPATHTTPESLELQGLLSEMRDRGCVAVAMEVSSHAIDQHRTHGVPFAAAVFTNLSQDHLDYHGTMEEYFKAKSKLFSSTAASRSGKLVINVDDIWGRRLVDAHKEHPGLVTYGLGVAADYRAVNPRYDLTGTSFELEHKGRSLLVRIPQIGQFNVYNSLAALAAAHGMGCNLRDTVKAMQSSPQIPGRMERVTPDNHSFHVFVDYAHTPDGLVNALSTARALRPERIITVFGCGGDRDRLKRPLMARAVEEHSDISILTSDNPRTEDPQAIMDDARKGFTRSAHALIADRKEAIHTAIKGAREGDIVVIAGKGHEPYQDVQGVKHPFDDRRVARQLVDIEIRIKGEKRLEARQRRDDRQ
B1: the Km in data set [1] worked out at 24 ± 6 µM; in data set [2] it was 17 ± 3 µM; in data set [3] it was 290 ± 70 µM.

In general, Km refers to the concentration of substrate that gives half-maximal velocity.
